Here are results for seven molecules from US20020146411A1, “Anticoagulant agents useful in treatment of thrombosis” (SmithKline Beecham Corporation, priority 1996, published 2002).

For assay [1], the target named is recombinant human Factor IX (rhFIX, Genetics Institute) (human) (UniProt P00740). The assay is described as follows: biosensor (BIAcore).
For assay [2] the target is unchanged. The assay can be described thus: titration calorimetry.
For assay [3] the target is unchanged. The assay is described as follows: isothermal titration calorimetry.
For assay [4] the target is unchanged. The assay can be described thus: BIAcore, calculated from kdiss and kass.
Assay [5] has the same target. The assay can be described thus: isothermal titration calorimetry, 25° C.
Assay [6] has the same target. The assay can be described thus: titration calorimetry, 37° C., 10 mM CaCl2.
Assay [7] shares this target. The assay can be described thus: titration microcalorimetry, 106 uM FIX injected into 2 uM mAb.
The target is the same in assay [8]. The assay is described as follows: BIAcore, antibody captured on immobilised protein A, rhFIX at 49 nM, 5 mM Ca2+.
Assay [9] shares this target. The assay is described as follows: titration calorimetry, 25° C. (calculated from the van't Hoff equation), 10 mM CaCl2.
For assay [10] the target is unchanged. The assay can be described thus: BIAcore, calculated.
The target is the same in assay [11]. The assay can be described thus: BIAcore kinetics of Factor IX binding.
Another assay concerns the target human Factor IX (human) (UniProt P00740). The assay is described as follows: cell-based or functional assay.

Chain of human Factor IX (human) (P00740 47-461 limits assumed): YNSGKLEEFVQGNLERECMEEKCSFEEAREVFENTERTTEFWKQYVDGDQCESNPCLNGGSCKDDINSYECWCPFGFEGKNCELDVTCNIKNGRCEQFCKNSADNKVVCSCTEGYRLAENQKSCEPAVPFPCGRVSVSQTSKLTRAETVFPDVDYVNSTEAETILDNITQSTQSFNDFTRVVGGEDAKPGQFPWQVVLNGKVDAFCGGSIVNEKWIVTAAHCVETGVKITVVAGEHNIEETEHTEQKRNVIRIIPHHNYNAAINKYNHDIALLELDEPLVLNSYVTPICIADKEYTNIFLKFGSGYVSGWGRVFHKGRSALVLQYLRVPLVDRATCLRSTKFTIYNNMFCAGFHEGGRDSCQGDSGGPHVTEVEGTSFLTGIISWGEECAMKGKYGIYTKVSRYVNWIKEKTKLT
Chain of recombinant human Factor IX (rhFIX, Genetics Institute) (human) (P00740 47-461 limits assumed): as above

B1: humanized anti-Factor IX monoclonal antibody SB 249417 (antibody, V domains shown)
VH: QVQLVQSGSELKKPGASVKVSCKASGYTFTNYGMNWVRQAPGQGLKWMGWINTRNGKSTYVDDFKGRFVFSLDSSVSTAYLQISSLKADDTAVYYCTREGNMDGYFPFTYWGQGTLVTVSS
VL: QIVLTQSPSSLSASVGDRVTITCRASSSVNYMHWYQQKPGKAPKPWIYATSNLASGVPSRFSGSGSGTDYTFTISSLQPEDIATYYCQQWSINPRTFGQGTKVEIKR
For the molecule B1, the Kd in [1] is 2 nM; in [4], 1.9 nM; in assay [5] it was 4 nM; in assay [6] it was 12 nM; in assay [9], 4 nM. Besides, the koff in assay [1] is 0.0004 s⁻¹; in [8], 0.00041 s⁻¹. Also, the association rate constant (kon) in assay [1] and in assay [8] was 200000 M⁻¹ s⁻¹ each time. Besides, in [2], the Molar Binding Ratio FIX/mAb was 1.5 FIX/mAb. In addition, in [3], the Stoichiometry of Factor IX Binding (moles Factor IX per mole mAb) was determined as 1.5. Also, in [7], the molar binding ratio at the equivalence point stood at 2 FIX per mAb.

B2: humanized anti-Factor IX monoclonal antibody SB 249416 (antibody, V domains shown)
VH: QVQLVQSGSELKKPGASVKVSCKASGYTFTNYGMNWVRQAPGQGLKWMGWINTRNGKSTYVDDFKGRFVFSLDSSVSTAYLQISSLKADDTAVYYCTREGNMDGYFPFTYWGQGTLVTVSS
VL: EIVLTQSPATLSLSPGERATLSCRASSSVNYMHWYQQRPGQAPKPWIYATSNLASGVPARFSGSGSGTDYTLTISSLEPEDFAVYYCQQWSINPRTFGGGTKVEIKR
B2: the equilibrium dissociation constant (Kd) in assay [10] is 0.8 nM. Also, in assay [11], the koff came to 0.00041 s⁻¹ and the on-rate constant (kon) was 520000 M⁻¹ s⁻¹.

B3: humanized anti-Factor IX monoclonal antibody SB 249413 (antibody, V domains shown)
VH: QVQLVQSGSELKKPGASVKVSCKASGYTFTNYGMNWVRQAPGQGLEWMGWINTRNGKSTYVDDFKGRFVFSLDTSVSTAYLQISSLKADDTAVYYCAREGNMDGYFPFTYWGQGTLVTVSS
VL: EIVLTQSPATLSLSPGERATLSCRASSSVNYMHWYQQRPGQAPRLLIYATSNLASGIPARFSGSGSGTDFTLTISSLEPEDFAVYYCQQWSINPRTFGGGTKVEIKR
As for B3, the results for the dissociation constant Kd in [10], in assay [6] and in assay [9] were 3.7 to 5.1 nM, 12 nM and 6 nM, respectively. Also, the Molar Binding Ratio FIX/mAb in [2] turned out to be 1.9 FIX/mAb. The off-rate (koff) in assay [11] was determined as 0.0028 s⁻¹. Also, the kon in assay [11] is 650000 M⁻¹ s⁻¹.

B4: humanized anti-Factor IX monoclonal antibody SB 257731 (antibody, V domains shown)
VH: QVQLVQSGSELKKPGASVKVSCKASGYTFTNYGMNWVRQAPGQGLKWMGWINTRNGKSTYVDDFKGRFVFSLDSSVSTAYLQISSLKADDTAVYYCTREGNMDGYFPFTYWGQGTLVTVSS
VL: QIVLTQSPATLSLSPGERATLSCRASSSVNYMHWYQQRPGQAPKPWIYATSNLASGVPARFSGSGSGTDYTLTISSLEPEDFAVYYCQQWSINPRTFGGGTKVEIK
As for B4, the dissociation constant (Kd) in assay [10] was 1.1 nM. Further, in assay [11], the off-rate (koff) was 0.00099 s⁻¹ and the kon was 920000 M⁻¹ s⁻¹.

B5: humanized anti-Factor IX monoclonal antibody SB 257732 (antibody, V domains shown)
VH: QIQLVQSGSELKKPGASVKVSCKASGYTFTNYGMNWVRQAPGQGLEWMGWINTRNGKSTYVDDFKGRFVFSLDTSVSTAYLQISSLKAEDTAVYFCTREGNMDGYFPFTYWGQGTLVTVSS
VL: QIVLTQSPSSLSASVGDRVTITCRASSSVNYMHWYQQKPGKAPKPWIYATSNLASGVPSRFSGSGSGTDYTLTISSLQPEDFATYYCQQWSINPRTFGGGTKLEIKR
For the molecule B5, the results for the Kd in assay [10], in assay [6] and in assay [9] were 1.5 nM, 9 nM and 4 nM, respectively. Moreover, the Molar Binding Ratio FIX/mAb in assay [2] was found to be 1.8 FIX/mAb. The koff in assay [11] worked out at 0.0012 s⁻¹. Besides, in assay [11], the kon worked out at 1.1e+06 M⁻¹ s⁻¹.

B6: humanized anti-Factor IX monoclonal antibody SB 249415 (antibody, V domains shown)
VH: QVQLVQSGSELKKPGASVKVSCKASGYTFTNYGMNWVRQAPGQGLKWMGWINTRNGKSTYVDDFKGRFVFSLDSSVSTAYLQISSLKADDTAVYYCTREGNMDGYFPFTYWGQGTLVTVSS
VL: EIVLTQSPATLSLSPGERATLSCRASSSVNYMHWYQQRPGQAPKPWIYATSNLASGVPARFSGSGSGTDFTLTISSLEPEDFAVYYCQQWSINPRTFGGGTKVEIKR
B6: the figures for the Kd in assay [10], in assay [6] and in [9] were 1.1 to 2.3 nM, 7 nM and 3 nM, respectively. Besides, the Molar Binding Ratio FIX/mAb in assay [2] came out at 1.7 FIX/mAb. Moreover, the koff in assay [11] is 0.00018 s⁻¹. The on-rate (kon) in assay [11] was found to be 750000 M⁻¹ s⁻¹.

B7: murine anti-Factor IX monoclonal antibody BC2 (antibody, mouse IgG2a, V domains shown)
VH: QIQLVQSGPELKKPGETVKISCKASGYTFTNYGMNWVKQAPGKGLKWMGWINTRNGKSTYVDDFKGRFAFSLESSASTANLQIDNLKDEDTATYFCTREGNMDGYFPFTYWGQGTLVTVSA
VL: QIVLSQSPAILSASPGEKVTMTCRASSSVNYMHWYQQKPGSSPKPWIYATSNLASGVPARFSGSGSGTSYSLTISRVEAEDAATYYCQQWSINPRTFGGGTKLEIKR
With B7, in the assay with human Factor IX (human), the IC50, nM (aPTT of human plasma) worked out at 50 nM; the aPTT at saturating antibody came out at 90 s; the aPTTmax / aPTTnormal × 100 % was 350%.
